Source: PMC6555819, “Comprehensive study of nuclear receptor DNA binding provides a revised framework for understanding receptor specificity”
Changes are numbered by the printed parent chain.

B1: NRC3_wobSeed37_DR1_G22A_o1 (dsDNA)
DNA 1: GCCGTCCAAGGTCAAAGGTCAATGAAGAGATGACGGGCGATTGACAGCGTAGAATGAAGG
DNA 2: CCTTCATTCTACGCTGTCAATCGCCCGTCATCTCTTCATTGACCTTTGACCTTGGACGGC
B2: NRC3_wobSeed98_DR4_T9A_o1 (dsDNA)
DNA 1: GCACTAGTAGGTCAGCTGAGGTCACACACAATTCGGGCGATTGACAGCGTAGAATGAAGG
DNA 2: CCTTCATTCTACGCTGTCAATCGCCCGAATTGTGTGTGACCTCAGCTGACCTACTAGTGC
B3: NRC3_wobSeed98_DR4_T9G_o1 (dsDNA)
DNA 1: B2 DNA 1 with A9G
DNA 2: B2 DNA 2 with T52C
B4: NRC3_wobSeed118_DR4_G13C_o1 (dsDNA)
DNA 1: GCTTACCAAGGTCAGCTGAGGTCGTTGATCCAACTCGCGATTGACAGCGTAGAATGAAGG
DNA 2: CCTTCATTCTACGCTGTCAATCGCGAGTTGGATCAACGACCTCAGCTGACCTTGGTAAGC
B5: NRC3_wobSeed113_DR4_G15C_o1 (dsDNA)
DNA 1: GCATATGTAGGTTACCTGGGGTCATTCAGACTAGGCGCGATTGACAGCGTAGAATGAAGG
DNA 2: CCTTCATTCTACGCTGTCAATCGCGCCTAGTCTGAATGACCCCAGGTAACCTACATATGC
B6: NRC3_wobSeed101_DR4_T23C_o1 (dsDNA)
DNA 1: GCCCTTACGGGTCACTCCAGGTCATAGCATCGGAGTGCGATTGACAGCGTAGAATGAAGG
DNA 2: CCTTCATTCTACGCTGTCAATCGCACTCCGATGCTATGACCTGGAGTGACCCGTAAGGGC
B7: NRC3_random_hg19_412_o1 (dsDNA)
DNA 1: GCACAACAGATGCTGGAGAGGATATGGAGATCCTTTGCGATTGACAGCGTAGAATGAAGG
DNA 2: CCTTCATTCTACGCTGTCAATCGCAAAGGATCTCCATATCCTCTCCAGCATCTGTTGTGC
B8: NRC3_wobSeed116_DR4_A21G_o1 (dsDNA)
DNA 1: GCAGAATGAGGTTACCAAAGGTCAGGGAAACGCTTGGCGATTGACAGCGTAGAATGAAGG
DNA 2: CCTTCATTCTACGCTGTCAATCGCCAAGCGTTTCCCTGACCTTTGGTAACCTCATTCTGC
B9: NRC3_random_hg19_90_o1 (dsDNA)
DNA 1: GCTGAGTATTGTAGATTCATTGTTGAGATTCTAGATGCGATTGACAGCGTAGAATGAAGG
DNA 2: CCTTCATTCTACGCTGTCAATCGCATCTAGAATCTCAACAATGAATCTACAATACTCAGC
B10: NRC3_random_hg19_185_o1 (dsDNA)
DNA 1: GCTAGTGAGTGAGTTCTCACAAGAAATGGTTGTTTAGCGATTGACAGCGTAGAATGAAGG
DNA 2: CCTTCATTCTACGCTGTCAATCGCTAAACAACCATTTCTTGTGAGAACTCACTCACTAGC
B11: NRC3_random_hg19_394_o1 (dsDNA)
DNA 1: GCGAGATCGAGACCATCTTGGCTAACACGGTGAAACGCGATTGACAGCGTAGAATGAAGG
DNA 2: CCTTCATTCTACGCTGTCAATCGCGTTTCACCGTGTTAGCCAAGATGGTCTCGATCTCGC
B12: NRC3_random_hg19_109_o1 (dsDNA)
DNA 1: GCTGGTGTTTCATCACTGTGGCAACTTCCCACCTGGGCGATTGACAGCGTAGAATGAAGG
DNA 2: CCTTCATTCTACGCTGTCAATCGCCCAGGTGGGAAGTTGCCACAGTGATGAAACACCAGC
B13: NRC3_random_hg19_439_o1 (dsDNA)
DNA 1: GCTATGGTTTGGCTGTGTCTCCATTCAAATCTCAACGCGATTGACAGCGTAGAATGAAGG
DNA 2: CCTTCATTCTACGCTGTCAATCGCGTTGAGATTTGAATGGAGACACAGCCAAACCATAGC
B14: NRC3_wobSeed49_DR2_T8C_o1 (dsDNA)
DNA 1: GCCAAACCAGGTCAAGAGGTCAAAGTCCGCTTCCCGGCGATTGACAGCGTAGAATGAAGG
DNA 2: CCTTCATTCTACGCTGTCAATCGCCGGGAAGCGGACTTTGACCTCTTGACCTGGTTTGGC
B15: NRC3_random_hg19_176_o1 (dsDNA)
DNA 1: GCCTGCCTGTGTTGGGACTTTGACTCCACATTTCCCGCGATTGACAGCGTAGAATGAAGG
DNA 2: CCTTCATTCTACGCTGTCAATCGCGGGAAATGTGGAGTCAAAGTCCCAACACAGGCAGGC
B16: NRC3_wobSeed109_DR4_G17T_o1 (dsDNA)
DNA 1: GCCGTCCAAGGTCATATGAGGTCAGTGAAGACAGATGCGATTGACAGCGTAGAATGAAGG
DNA 2: CCTTCATTCTACGCTGTCAATCGCATCTGTCTTCACTGACCTCATATGACCTTGGACGGC
B17: NRC3_wobSeed114_DR4_G17T_o1 (dsDNA)
DNA 1: GCAATACAGGGTCATCTTAGGCCAGAGTACGCACAGGCGATTGACAGCGTAGAATGAAGG
DNA 2: CCTTCATTCTACGCTGTCAATCGCCTGTGCGTACTCTGGCCTAAGATGACCCTGTATTGC
B18: NRC3_wobSeed88_DR3_G11T_o1 (dsDNA)
DNA 1: GCTAGCCTAGTTCATGCGGGCCAGTATAGTGTCGGCGCGATTGACAGCGTAGAATGAAGG
DNA 2: CCTTCATTCTACGCTGTCAATCGCGCCGACACTATACTGGCCCGCATGAACTAGGCTAGC
B19: NRC3_random_hg19_217_o1 (dsDNA)
DNA 1: GCCTCAAACTCCCTTCTTCAGTTTCTGGTAGATCAAGCGATTGACAGCGTAGAATGAAGG
DNA 2: CCTTCATTCTACGCTGTCAATCGCTTGATCTACCAGAAACTGAAGAAGGGAGTTTGAGGC
B20: NRC3_random_hg19_346_o1 (dsDNA)
DNA 1: GCGCCTTCTGCTACAGGGCAAAGGTGGCACACAAAGGCGATTGACAGCGTAGAATGAAGG
DNA 2: CCTTCATTCTACGCTGTCAATCGCCTTTGTGTGCCACCTTTGCCCTGTAGCAGAAGGCGC
B21: NRC3_wobSeed103_DR4_G23C_o1 (dsDNA)
DNA 1: GCGCATATAGGTAATACAAGGTCAAAGTCCGATTGTGCGATTGACAGCGTAGAATGAAGG
DNA 2: CCTTCATTCTACGCTGTCAATCGCACAATCGGACTTTGACCTTGTATTACCTATATGCGC
B22: NRC3_wobSeed136_DR5_C24A_o1 (dsDNA)
DNA 1: GCTAGCCTAGGTCATTCAGGGGCAAGTATAGAAAGCGCGATTGACAGCGTAGAATGAAGG
DNA 2: CCTTCATTCTACGCTGTCAATCGCGCTTTCTATACTTGCCCCTGAATGACCTAGGCTAGC

What follows are binders tested against RXRa (Homo sapiens, UniProt P19793) (assay: no ligand; PBM; 180 nM; PBS pH 7.4, 2% milk, 0.02% Triton X-100, 1 mM DTT, BSA, 0.4 mg/ml salmon testes DNA). Settings: tags: His cleaved; chain copies: 2; label: surface-attached array probe.

| Binder | binding signal |
| --- | --- |
| B1 | 10.7 PBM z-score against 500 random probes |

The binders below were run against VDR:RXRa (Homo sapiens, UniProt P11473;P19793 full;full) (assay: no ligand; PBM; 270 nM : 90 nM RXRa; PBS pH 7.4, 2% milk, 0.02% Triton X-100, 1 mM DTT, BSA, 0.4 mg/ml salmon testes DNA). Settings: tags: His kept;His cleaved; copies: 1;1; label: surface-attached array probe.
Summary of the method: (§1)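 On custom Agilent 4×180K arrays, double-stranded probes with 34-nt variable regions carried direct-repeat seeds, single-nucleotide variants, half-site ablations or random human genomic background. Ligand-free nuclear receptor dimers were applied for 1 h, and binding was read with antibodies against each partner (one per run). Binding z-scores come from regression-normalized fluorescence, with the random background probes as reference.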

Chain of VDR:RXRa (P11473 whole entry, chain 1 of 2): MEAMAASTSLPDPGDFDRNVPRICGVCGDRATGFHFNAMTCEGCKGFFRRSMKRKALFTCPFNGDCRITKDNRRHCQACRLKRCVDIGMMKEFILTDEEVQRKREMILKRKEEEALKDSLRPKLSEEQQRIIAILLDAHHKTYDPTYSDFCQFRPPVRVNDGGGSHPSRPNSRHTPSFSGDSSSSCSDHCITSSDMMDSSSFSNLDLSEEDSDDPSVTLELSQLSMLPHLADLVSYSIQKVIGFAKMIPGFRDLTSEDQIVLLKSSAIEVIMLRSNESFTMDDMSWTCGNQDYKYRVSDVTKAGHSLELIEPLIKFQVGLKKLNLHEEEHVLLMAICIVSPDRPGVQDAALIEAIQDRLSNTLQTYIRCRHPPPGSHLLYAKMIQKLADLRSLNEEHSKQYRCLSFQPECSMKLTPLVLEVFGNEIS
Chain of VDR:RXRa (P19793 whole entry, chain 2 of 2): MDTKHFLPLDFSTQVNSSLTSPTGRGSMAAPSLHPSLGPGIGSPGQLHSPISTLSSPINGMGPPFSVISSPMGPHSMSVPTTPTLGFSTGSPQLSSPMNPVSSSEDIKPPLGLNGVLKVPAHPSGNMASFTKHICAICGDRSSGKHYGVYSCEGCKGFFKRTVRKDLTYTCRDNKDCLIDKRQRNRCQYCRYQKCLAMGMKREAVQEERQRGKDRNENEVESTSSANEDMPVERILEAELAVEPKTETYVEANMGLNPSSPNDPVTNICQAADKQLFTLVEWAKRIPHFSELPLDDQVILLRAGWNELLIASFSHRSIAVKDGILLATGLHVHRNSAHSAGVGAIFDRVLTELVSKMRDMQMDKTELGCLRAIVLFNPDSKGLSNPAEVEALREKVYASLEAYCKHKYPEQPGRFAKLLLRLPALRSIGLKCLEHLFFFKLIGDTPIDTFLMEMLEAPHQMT

| Binder | binding signal |
| --- | --- |
| B2 | 6.98 PBM z-score against 500 random probes |
| B3 | 6.63 PBM z-score against 500 random probes |
| B4 | 6.65 PBM z-score against 500 random probes |

What follows are binders tested against LXRb:RXRa (Homo sapiens, UniProt P55055;P19793 full;full) in the same assay as above. Settings: tags: His kept;His cleaved; copies: 1;1; label: surface-attached array probe.
Summary of the method: as §1

| Binder | binding signal |
| --- | --- |
| B5 | 8.08 PBM z-score against 500 random probes |
| B6 | 7.16 PBM z-score against 500 random probes |
| B7 | -0.93 PBM z-score against 500 random probes |
| B8 | 8.32 PBM z-score against 500 random probes |
| B1 | 7.29 PBM z-score against 500 random probes |

What follows are binders tested against PXR:RXRa (Homo sapiens, UniProt O75469;P19793 full;full) in the same assay as above. Settings: tags: His kept;His cleaved; copies: 1;1; label: surface-attached array probe.
Summary of the method: as §1

Chain of PXR:RXRa (O75469 whole entry, chain 1 of 2): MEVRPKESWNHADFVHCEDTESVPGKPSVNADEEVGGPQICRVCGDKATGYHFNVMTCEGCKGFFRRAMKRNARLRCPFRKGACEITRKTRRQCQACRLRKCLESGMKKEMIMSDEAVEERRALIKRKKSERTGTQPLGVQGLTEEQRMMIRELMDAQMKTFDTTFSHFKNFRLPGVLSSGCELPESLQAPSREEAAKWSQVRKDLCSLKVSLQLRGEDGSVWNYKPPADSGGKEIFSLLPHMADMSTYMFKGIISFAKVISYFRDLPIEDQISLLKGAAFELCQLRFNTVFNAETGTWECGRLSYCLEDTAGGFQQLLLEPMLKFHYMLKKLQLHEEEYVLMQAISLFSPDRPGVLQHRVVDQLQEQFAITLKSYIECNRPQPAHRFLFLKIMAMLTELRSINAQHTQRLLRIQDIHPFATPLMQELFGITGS
Chain of PXR:RXRa (P19793 whole entry, chain 2 of 2): as the sequence (P19793 whole entry, chain 2 of 2) above

| Binder | binding signal |
| --- | --- |
| B2 | 7.12 PBM z-score against 500 random probes |
| B3 | 6.95 PBM z-score against 500 random probes |
| B9 | -0.1 PBM z-score against 500 random probes |
| B10 | -0.01 PBM z-score against 500 random probes |
| B11 | -0.39 PBM z-score against 500 random probes |
| B12 | -0.28 PBM z-score against 500 random probes |
| B13 | 0.5 PBM z-score against 500 random probes |
| B4 | 6.89 PBM z-score against 500 random probes |
| B14 | 6.81 PBM z-score against 500 random probes |

What follows are binders tested against FXR:RXRa (Homo sapiens, UniProt Q96RI1;P19793 full;full) in the same assay as above. Settings: tags: His kept;His cleaved; copies: 1;1; label: surface-attached array probe.
Summary of the method: as §1

Chain of FXR:RXRa (Q96RI1 whole entry, chain 1 of 2): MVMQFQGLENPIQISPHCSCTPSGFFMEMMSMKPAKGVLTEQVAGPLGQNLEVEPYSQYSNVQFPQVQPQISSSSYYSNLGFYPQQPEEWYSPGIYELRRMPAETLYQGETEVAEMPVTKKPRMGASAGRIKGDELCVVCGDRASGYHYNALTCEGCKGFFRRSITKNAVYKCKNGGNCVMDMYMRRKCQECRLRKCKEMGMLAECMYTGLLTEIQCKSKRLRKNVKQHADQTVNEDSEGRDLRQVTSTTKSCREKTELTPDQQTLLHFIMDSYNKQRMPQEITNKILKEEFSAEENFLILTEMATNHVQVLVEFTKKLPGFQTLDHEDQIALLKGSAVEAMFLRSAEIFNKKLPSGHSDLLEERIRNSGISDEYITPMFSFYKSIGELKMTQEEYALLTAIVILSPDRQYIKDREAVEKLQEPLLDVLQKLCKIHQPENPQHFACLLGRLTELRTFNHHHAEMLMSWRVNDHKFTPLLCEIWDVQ
Chain of FXR:RXRa (P19793 whole entry, chain 2 of 2): as the sequence (P19793 whole entry, chain 2 of 2) above

| Binder | binding signal |
| --- | --- |
| B15 | -0.18 PBM z-score against 500 random probes |
| B7 | -0.81 PBM z-score against 500 random probes |
| B14 | 7.9 PBM z-score against 500 random probes |

What follows are binders tested against LXRa:RXRa (Homo sapiens, UniProt Q13133;P19793 full;full) in the same assay as above. Settings: tags: His kept;His cleaved; copies: 1;1; label: surface-attached array probe.
Summary of the method: as §1

Chain of LXRa:RXRa (Q13133 whole entry, chain 1 of 2): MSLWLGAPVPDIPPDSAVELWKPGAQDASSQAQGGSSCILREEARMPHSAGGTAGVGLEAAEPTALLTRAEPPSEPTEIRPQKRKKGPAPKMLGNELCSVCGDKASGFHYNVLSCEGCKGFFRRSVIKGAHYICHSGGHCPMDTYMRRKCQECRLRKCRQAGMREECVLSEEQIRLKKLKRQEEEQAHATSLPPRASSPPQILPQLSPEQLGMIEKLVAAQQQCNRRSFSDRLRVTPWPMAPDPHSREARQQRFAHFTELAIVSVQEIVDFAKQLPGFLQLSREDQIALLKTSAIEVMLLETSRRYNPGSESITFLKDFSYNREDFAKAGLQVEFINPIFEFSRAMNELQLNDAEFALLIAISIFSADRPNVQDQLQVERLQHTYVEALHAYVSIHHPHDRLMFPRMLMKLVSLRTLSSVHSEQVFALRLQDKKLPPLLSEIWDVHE
Chain of LXRa:RXRa (P19793 whole entry, chain 2 of 2): as the sequence (P19793 whole entry, chain 2 of 2) above

| Binder | binding signal |
| --- | --- |
| B16 | 7.97 PBM z-score against 500 random probes |
| B15 | -0.07 PBM z-score against 500 random probes |
| B17 | 7.35 PBM z-score against 500 random probes |
| B18 | 0.09 PBM z-score against 500 random probes |
| B19 | 0.47 PBM z-score against 500 random probes |
| B20 | 0 PBM z-score against 500 random probes |
| B5 | 8.75 PBM z-score against 500 random probes |
| B21 | 7 PBM z-score against 500 random probes |
| B22 | 6.65 PBM z-score against 500 random probes |
| B6 | 8.42 PBM z-score against 500 random probes |
| B7 | -0.73 PBM z-score against 500 random probes |
| B8 | 9.08 PBM z-score against 500 random probes |

Each binder was assayed against RARg:RXRa (Homo sapiens, UniProt P13631;P19793 full;full) in the same assay as above. Settings: tags: His kept;His cleaved; copies: 1;1; label: surface-attached array probe.
Summary of the method: as §1

| Binder | binding signal |
| --- | --- |
| B18 | 0.41 PBM z-score against 500 random probes |
| B22 | 4.49 PBM z-score against 500 random probes |
| B1 | 9.11 PBM z-score against 500 random probes |

The binders below were run against PPARa:RXRa (Homo sapiens, UniProt Q07869;P19793 full;full) in the same assay as above. Settings: tags: GST kept;His cleaved; copies: 1;1; label: surface-attached array probe.
Summary of the method: as §1

| Binder | binding signal |
| --- | --- |
| B15 | 0 PBM z-score against 500 random probes |
| B1 | 7.52 PBM z-score against 500 random probes |

These binders were tested against RARb:RXRa (Homo sapiens, UniProt P10826;P19793 full;full) in the same assay as above. Settings: tags: His kept;His cleaved; copies: 1;1; label: surface-attached array probe.
Summary of the method: as §1

| Binder | binding signal |
| --- | --- |
| B19 | -0.02 PBM z-score against 500 random probes |

What follows are binders tested against THRa:RXRa (Homo sapiens, UniProt P10827;P19793 full;full) (assay: no ligand; PBM; 90 nM : 90 nM RXRa; PBS pH 7.4, 2% milk, 0.02% Triton X-100, 1 mM DTT, BSA, 0.4 mg/ml salmon testes DNA). Settings: tags: His kept;His cleaved; copies: 1;1; label: surface-attached array probe.
Chain of THRa:RXRa (P10827 other isoform, or with tags, fused parts or gaps, chain 1 of 2): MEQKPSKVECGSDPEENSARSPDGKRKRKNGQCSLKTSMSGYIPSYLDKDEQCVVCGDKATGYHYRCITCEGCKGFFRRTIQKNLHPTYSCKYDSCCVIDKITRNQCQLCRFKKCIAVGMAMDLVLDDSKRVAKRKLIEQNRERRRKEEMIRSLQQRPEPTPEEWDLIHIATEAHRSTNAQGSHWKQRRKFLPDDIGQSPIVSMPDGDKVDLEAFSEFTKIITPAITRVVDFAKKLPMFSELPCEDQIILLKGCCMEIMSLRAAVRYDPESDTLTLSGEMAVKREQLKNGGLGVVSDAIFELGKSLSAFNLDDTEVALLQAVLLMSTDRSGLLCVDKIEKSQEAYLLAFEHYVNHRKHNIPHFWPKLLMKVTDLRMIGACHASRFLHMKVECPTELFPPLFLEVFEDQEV
Chain of THRa:RXRa (P19793 whole entry, chain 2 of 2): as the sequence (P19793 whole entry, chain 2 of 2) above

| Binder | binding signal |
| --- | --- |
| B16 | 5.58 PBM z-score against 500 random probes |
| B15 | -0.11 PBM z-score against 500 random probes |
| B17 | 5.49 PBM z-score against 500 random probes |
| B18 | 0.14 PBM z-score against 500 random probes |
| B19 | -0.02 PBM z-score against 500 random probes |
| B2 | 5.78 PBM z-score against 500 random probes |
| B3 | 5.78 PBM z-score against 500 random probes |
| B20 | 0.22 PBM z-score against 500 random probes |
| B5 | 5.46 PBM z-score against 500 random probes |
| B21 | 4.92 PBM z-score against 500 random probes |
| B9 | -0.22 PBM z-score against 500 random probes |
| B22 | 5.06 PBM z-score against 500 random probes |
| B10 | -0.23 PBM z-score against 500 random probes |
| B11 | -0.09 PBM z-score against 500 random probes |
| B6 | 5.34 PBM z-score against 500 random probes |
| B12 | -0.41 PBM z-score against 500 random probes |
| B7 | -0.82 PBM z-score against 500 random probes |
| B13 | 0.36 PBM z-score against 500 random probes |
| B8 | 5.21 PBM z-score against 500 random probes |
| B4 | 5.55 PBM z-score against 500 random probes |
| B1 | 5.12 PBM z-score against 500 random probes |
| B14 | 4.82 PBM z-score against 500 random probes |
